Data published in patent US20120087949, “OLIGONUCLEOTIDE MICELLES” (University of Florida Research Foundation, Inc., published 2012).

How the values were obtained:
[1] = tested on: unidentified cell-surface target of sgc8 on CCRF-CEM cells; details: 5'-diacyl lipid-(PEG)4, membrane anchored; CITED; value for sgc8 aptamer; CEM cell aggregation with lipo-sgc8-TMR shown here (FIG. 13A); cited from earlier work
[2] = target: T1, IGHM (immunoglobulin heavy mu chain), on Ramos cells (UniProt P01871 P01871:1-474); assay: flow; Ramos cells; based on lipid unit concentration; 0.116 nM if 1000 copies per micelle; details: tags: endogenous on Ramos cells (ATCC CRL-1596); chain copies: 2; label: 3'-FAM
[3] = target: T1, IGHM (immunoglobulin heavy mu chain), …; assay: flow; free TDO5 on Ramos cells; compared with micelle; elsewhere quoted as 74 nM (p179, CITED); details: tags: endogenous on Ramos cells (ATCC CRL-1596); chain copies: 2; label: FITC

T1 sequence (P01871 whole entry, one chain of several): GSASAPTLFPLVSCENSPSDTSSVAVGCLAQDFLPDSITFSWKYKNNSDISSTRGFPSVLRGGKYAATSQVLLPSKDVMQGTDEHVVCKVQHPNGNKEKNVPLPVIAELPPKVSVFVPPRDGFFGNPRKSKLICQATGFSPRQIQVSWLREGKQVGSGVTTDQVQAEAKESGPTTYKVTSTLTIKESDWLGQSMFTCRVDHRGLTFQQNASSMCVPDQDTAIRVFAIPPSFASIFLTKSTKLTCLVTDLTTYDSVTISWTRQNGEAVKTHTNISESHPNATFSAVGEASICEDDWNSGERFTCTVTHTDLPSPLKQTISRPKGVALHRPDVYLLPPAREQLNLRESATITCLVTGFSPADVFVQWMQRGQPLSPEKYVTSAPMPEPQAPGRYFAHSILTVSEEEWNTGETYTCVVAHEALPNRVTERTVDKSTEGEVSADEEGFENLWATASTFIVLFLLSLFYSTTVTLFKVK

For “TTTTTTTATCTAACTGCTGCGCCGCCGGGAAAATACTGTACGGTTAGA [Lipo-sgc8-TMR]”, the Kd [1] is given as 0.8 nM.

AACACCGGGAGGATAGTTCGGTGGCTGTTCAGGGTCTCCTCCCGGTGA (ssDNA, 5'-diacyl lipid tail-(CH2CH2O)24; self-assembled micelle) [TDO5-micelle (lipid-TDO5)] showed a Kd [2] of 116 nM.

For AACACCGGGAGGATAGTTCGGTGGCTGTTCAGGGTCTCCTCCCGGTGA (ssDNA) [TDO5], the Kd [3] was 88 nM.
